Each block holds one substance with its values, some of them ahead of it.
Tests used:
[1] = biological target: GST-tagged human α-synuclein (full length, wild type) (human) (UniProt P37840); experiment: pull-down; 50-100 μg GST-tagged protein as bait, 1-5 mg lamprey CNS (brain and spinal cord) extract in HKET buffer; bound Hsc70 detected by Western blot, band intensity in AU
[2] = biological target: GST-tagged human α-synuclein NTD (a.a. 1-102) (human) (UniProt P37840); experiment: as above
[3] = biological target: GST-tagged lamprey γ-synuclein NTD (lamprey); experiment: pull-down; direct binding: 50-100 μg GST-tagged protein as bait, 100 μg purified recombinant bovine Hsc70 or truncation, without nucleotides; Western blot, band intensity in AU
[4] = biological target: GST-tagged lamprey γ-synuclein NTD (lamprey); experiment: pull-down; 50-100 μg GST-tagged protein as bait, 1-5 mg rat brain extract in HKET buffer (25 mM HEPES K+, 150 mM KCl, 1 mM EDTA, 1% Triton X-100, pH 7.4); bound proteins detected by Western blot, band intensity in AU

band intensity (AU) [1]: 106 AU
band intensity (AU) [2]: 154 AU
Substance: endogenous Hsc70 from lamprey brain and spinal cord extracts (natural protein)

band intensity (AU) [3]: 62.8 AU
Substance: His-tagged recombinant bovine Hsc70 (from UniProt P19120 1-650) (natural protein)

band intensity (AU) [4]: 153 AU
Substance: Hsc70 from rat brain extracts (from UniProt P63018 1-646) (natural protein)
